From the DeepSol protein solubility set

Experiment: soluble on expression in E. coli; label from the status in PepcDB or PDB records
For “GPGSMVEYKSAAAIAQALFTTHGKDSTTFNRLLRDRIGKRGDRFTEDHPDTFLYIERSKNANVVAYTARFVDAETKKPVPSGVGRDCIIKHDGPVHAYFITLDPQQMEKLRAKGRTSLIDDLNFVQRKMAYGCSGKSFDVASASRECDNPADFKRWMSAFDPYTLSYVALAKYPTLLLTLKPVKDSNGEENDTAVALIAVIGGELSVVKKIYVSSTEPKHFYELPTVNYIEVFGVSVDKGSDTYEKKAP”, the “soluble on expression in E. coli” value was “not soluble”.
For “GPGSMVLSSPVITLRRMVHFSSTPTSLHSRSSTSPLDALVDEVSSFIPATFTSIPQISRQLPPELMERVCDPVCGGLRSLLSRYAERFESKMIGQVHVVRSRLRQRESAAPCRRANAGAEVGYSFAVPSSPSGNAAAAASKSNSVDVQAVFTELQQLFPSYLVPVKALWTTVPEAEEQQVRARVLDALRSPQHRAWLTFHEHPAHCASHSTSADEAELTHVLEHGYVQLRLNPAAGDDRAAAPMPQSPNTRMAGHEVQPYEWYRVARVLPTTATELLFSGELQEQATLLLPPGRDVWHVLLSAPALFELRYAAPTTVDSGQQARVPTLSAEGSSLAPVCVKYDATPPPSLCASVYVRFRLEERFVPPDMAGAREESILRELETLTAERAASACGLSSRQRRRKRKLQRQLAYLRNPTPYFDERVLAQHLFDLLPLRDGVHQSALLGSLPQPAVQAFPQNVTELLQARNDLFQLSDVRHGILVRRADAPKVAQRSIESVTGEEILLHIFSSYSLRSDPQEGTTISRSLPRLPRLVRERLFTMQDIIAEVLLLYPDKVEVLADRSPSISSLSLSSSPHTSEADERALRELRTVRGRRDFLVPFRFVGEWQAKLTEKYTKQQTKDAVKSMRARQRSESSHRRPARY”, the “soluble on expression in E. coli” value was “not soluble”.
With “GPGSMVRKNMYDGWSYERLRQQRNRAHFLLEDPYRFVTVLLHNGKLYAIDSPCYHASGPLGEGELMDLEDSHTAASVACLRCPWHNILVAIDTGEIVEVHPDTSAVRGKDDGGRELAAPSYPLRPHWEASAGSVRLSRGNVVQRTHKVSLDESNGIMTIEIEDEATMRRHPLPSDAAAGILESGALTMQIFDIKSKGMS” the “soluble on expression in E. coli” value was “soluble”.
For “GPLETDLVAVWDVALSDGVHKIEFEHGTTSGKRVVYVDGKEEIRKEWMFKLVGKETFYVGAAKTKATINIDAISGFAYEYTLEINGKSLKKYMEDRSKTTNTWVLHMDGENFRIVLEKDAMDVWCNGKKLETAGEFVDDGTETHFSIGNHDCYIKAVSSGKRKEGIIHTLIVDNREIPEIAS”, the “soluble on expression in E. coli” value was “soluble”.
In the case of “GPLGSAAAATPAVRTVPQYKYAAGVRNPQQHLNAQPQVTMQQPAVHVQGQEPLTASMLASAPPQEQKQMLGERLFPLIQAMHPTLAGKITGMLLEIDNSELLHMLESPESLRSKVDEAVAVLQAHQAKEAAQKAVNSATGVPTV”, the “soluble on expression in E. coli” value is reported as “soluble”.
For “GPLGSDHVLHVTFPKEWKTSDLYQLFSAFGNIQISWIDDTSAFVSLSQPEQVKIAVNTSKYAESYRIQTYAEYMGRKQEEKQIKRKWTEDSWKEADSKRLN”, the “soluble on expression in E. coli” value was “soluble”.
For “GPLGSGEEEPLPPRWSMQVAPNGRTFFIDHASRRTTWIDPRNGRAS”, the “soluble on expression in E. coli” value was “soluble”.
In the case of “GPLGSKVDLFDFELPERLIAQVPLEQRDASRLMVLDKHTGELTDSSFKHIISFFNEGDCLVLNNTRVLPARLFGTKEDTGAKVELLLLKQETGDKWETLAKPAKRVKKGTVVTFGDGRLKAICTEELEHGGRKMEFQYDGIFYEVLESLGEMPLPPYIKEQLDDKERYQTVYSKEIGSAAAPTAGLHFTEEILQQLKDKGVQIEFITLHVGLGTFRPVSADEVEEHNMHAEFYQMSEETAAALNKVRENGGRIISVGTTSTRTLETIAGEHDGQFKASSGWTSIFIYPGYEFKAIDGMITNFHLPKSSLIMLVSALAGRENILRAYNHAVEEEYRFFSFGDAMLII”, the “soluble on expression in E. coli” value is reported as “soluble”.
For “GPLGSMDAKARNCLLQHREALEKDIKTSYIMDHMISDGFLTISEEEKVRNEPTQQQRAAMLIKMILKKDNDSYVSFYNALLHEGYKDLAALLHDGIPVVSSS”, the “soluble on expression in E. coli” value was “soluble”.
For “GPLGSMTGPSVHDRALGAFLGLAVGDALGATVEFMTKGEIAQQYGIHRKMTGGGWLRLKPGQITDDTEMSLALGRSLAAKGTLDVADICEEFALWLKSRPVDVGNTCRRGIRRYMHEGTTTAPYSEGDAGNGAAMRCLPAALATLGHPADLEPWVLAQARITHNHPLSDAACLTLGRMVHHLIGGRGMKACREEANRLVHQHRDFHFEPYKGQSSAYIVDTMQTVLHYYFVTDTFKSCLIQTVNQGGDADTTGALAGMLAGATYGVDDIPSGWLSKLDMKVEREIRRQVDALLALAGLD”, the “soluble on expression in E. coli” value was “soluble”.
